Values of other authors as cited in paper PMC3209554.
pKd: −log10 of the molar value.

Molecular target: ClpX N domain (Escherichia coli) (UniProt P0A6H1)
Chain of UniProt P0A6H1 (P0A6H1 2-56): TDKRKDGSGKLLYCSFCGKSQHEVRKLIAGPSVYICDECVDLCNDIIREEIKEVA

pKd: 4.70
Substance: SspB C-terminal tail (from UniProt P0AFZ3)
